This is an account of results in doi:10.1101/803361.

This assay has as its target Fluorescein-labelled Hsf1 peptide with the Hsc70 binding site in the TAD, residues 461-471 (human) (UniProt Q00613). In words: fluorescence polarisation. (In general: Polarisation of emitted light reports the rotation of a fluorescent probe.)

Fluorescein-labelled Hsf1 peptide with the Hsc70 binding site in the TAD, residues 461-471 (human), sequence (Q00613 whole entry, looked up, the tested form may be a part): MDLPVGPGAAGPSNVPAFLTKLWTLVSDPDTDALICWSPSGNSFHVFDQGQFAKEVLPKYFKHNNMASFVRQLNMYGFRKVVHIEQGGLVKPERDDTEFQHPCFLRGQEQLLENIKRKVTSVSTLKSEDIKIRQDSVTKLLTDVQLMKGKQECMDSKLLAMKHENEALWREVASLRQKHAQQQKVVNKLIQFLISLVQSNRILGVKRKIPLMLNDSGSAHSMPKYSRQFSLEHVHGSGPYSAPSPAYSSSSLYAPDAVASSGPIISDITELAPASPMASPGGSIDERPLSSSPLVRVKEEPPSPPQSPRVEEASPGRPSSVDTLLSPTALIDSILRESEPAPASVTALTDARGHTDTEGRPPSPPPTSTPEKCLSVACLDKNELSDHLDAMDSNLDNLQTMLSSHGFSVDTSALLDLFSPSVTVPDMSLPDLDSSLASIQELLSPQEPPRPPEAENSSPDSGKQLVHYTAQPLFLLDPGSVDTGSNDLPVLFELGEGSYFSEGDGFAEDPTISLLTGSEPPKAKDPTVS
Human Hsc70 (HSPA8), wild type, sequence (P11142 whole entry): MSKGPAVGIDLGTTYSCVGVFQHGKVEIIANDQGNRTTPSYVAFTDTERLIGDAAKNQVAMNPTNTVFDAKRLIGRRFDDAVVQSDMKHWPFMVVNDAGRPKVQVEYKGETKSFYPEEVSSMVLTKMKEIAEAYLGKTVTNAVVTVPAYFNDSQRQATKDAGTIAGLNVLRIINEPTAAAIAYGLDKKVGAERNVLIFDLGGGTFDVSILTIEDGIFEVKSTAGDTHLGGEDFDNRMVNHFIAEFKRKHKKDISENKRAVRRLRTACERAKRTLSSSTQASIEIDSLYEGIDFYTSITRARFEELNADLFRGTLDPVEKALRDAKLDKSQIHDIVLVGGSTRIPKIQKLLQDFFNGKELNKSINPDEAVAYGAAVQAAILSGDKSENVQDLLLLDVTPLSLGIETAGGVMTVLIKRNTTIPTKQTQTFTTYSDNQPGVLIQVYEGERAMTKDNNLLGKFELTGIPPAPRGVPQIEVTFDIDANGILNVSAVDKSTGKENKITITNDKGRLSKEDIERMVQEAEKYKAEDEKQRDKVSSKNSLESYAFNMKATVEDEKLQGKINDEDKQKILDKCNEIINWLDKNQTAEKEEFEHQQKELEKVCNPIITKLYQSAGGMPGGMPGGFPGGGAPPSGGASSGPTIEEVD

With “Human Hsc70 (HSPA8), wild type (from UniProt P11142 1-646) (natural protein)”, the Kd (usually the free concentration of one partner at which half of the binding sites on the other are occupied at equilibrium, for simple one-to-one binding) was 5 to 30 µM.
